System: His6-H1.4 (unphosphorylated) (human)
Assay: EMSA

**Q.** With 216-bp 601 mononucleosome as the substance, how does the binding signal (% shifted (H1-shifted band)) read?
**A.** The binding signal (% shifted (H1-shifted band)) was 35.9.

Reference: PMC3195632
